Measurements taken from the supplement of paper PMC9233669.
Fewer inactive variants are shown than the library holds.

Tests used:
[1] = system: biotinyl-Ile-oxazolone; experiment: self-aminoacylation, catalytic enhancement (BIO) (fold over background); higher = more active; k-Seq, kA / k0A0; sequences stand for … in GGGAAUGGAUCCACAUCUACGAAUUC…UUCACUGCAGACUUGACGAAGCUG
How it was run: (§1)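 Mutagenized RNA pools with a 21-nt variable region (0.43 μM) reacted with each biotinyl-aminoacyl-oxazolone at 2–1250 μM. Reactions ran in 50 μL HEPES/NaCl/KCl/MgCl2/CaCl2 buffer with 5% acetonitrile, pH 6.9–7.0, for 90 minutes at room temperature. Streptavidin-captured RNA was quantified by triplicate qPCR and Illumina sequencing, and per-sequence fraction reacted was fit to a pseudo-first-order model with 1000 bootstraps. Catalytic enhancement is median kA divided by the uncatalyzed rate, the low-activity peak of a bimodal Gaussian fit.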

[2] = system: biotinyl-Val-oxazolone; experiment: self-aminoacylation, catalytic enhancement (BVO) (fold over background); higher = more active; k-Seq, kA / k0A0; sequences stand for … in GGGAAUGGAUCCACAUCUACGAAUUC…UUCACUGCAGACUUGACGAAGCUG
How it was run: as §1

[3] = system: biotinyl-Leu-oxazolone; experiment: self-aminoacylation, catalytic enhancement (BLO) (fold over background); higher = more active; k-Seq, kA / k0A0; sequences stand for … in GGGAAUGGAUCCACAUCUACGAAUUC…UUCACUGCAGACUUGACGAAGCUG
How it was run: as §1

[4] = system: biotinyl-Phe-oxazolone; experiment: self-aminoacylation, catalytic enhancement (BFO) (fold over background); higher = more active; k-Seq, kA / k0A0; sequences stand for … in GGGAAUGGAUCCACAUCUACGAAUUC…UUCACUGCAGACUUGACGAAGCUG
How it was run: as §1

[5] = system: biotinyl-Trp-oxazolone; experiment: self-aminoacylation, catalytic enhancement (BWO) (fold over background); higher = more active; k-Seq, kA / k0A0; sequences stand for … in GGGAAUGGAUCCACAUCUACGAAUUC…UUCACUGCAGACUUGACGAAGCUG
How it was run: as §1

[6] = system: biotinyl-Met-oxazolone; experiment: self-aminoacylation, catalytic enhancement (BMO) (fold over background); higher = more active; k-Seq, kA / k0A0; sequences stand for … in GGGAAUGGAUCCACAUCUACGAAUUC…UUCACUGCAGACUUGACGAAGCUG
How it was run: as §1

Sequence | self-aminoacylation [1] | self-aminoacylation [2] | self-aminoacylation [3] | self-aminoacylation [4] | self-aminoacylation [5] | self-aminoacylation [6]
AUUCACCCAGGUCAUCGCGUG [Fam2.2 aminoacylation ribozyme variant] | 8.24 | 8.43 | 19.4 | 123 | 13 | 16
AUUCACCCAGGUCAUCGGGUG [Fam2.2 aminoacylation ribozyme variant] | 3.26 | 3.53 | 5.86 | 34.2 | 4.53 | 4.83
AUUCACCCAGGUCAUCGUGUG [Fam2.2 aminoacylation ribozyme variant] | 0.798 | 1.04 | 1.29 | 3.46 | 1.1 | 1.04
AUUCACCCAGGUUAUCGGGUG [Fam2.2 aminoacylation ribozyme variant] | 2.77 | 3.33 | 4.62 | 35.3 | 4.83 | 4.79
AUUCACCCUGGUCAUCGGGUG [Fam2.2 aminoacylation ribozyme variant] | 5.16 | 5.5 | 11.5 | 71 | 10.6 | 10.6
AUUCACCGACGUCAUCGGGUG [Fam2.2 aminoacylation ribozyme variant] | 5.71 | 6.24 | 12.9 | 55.1 | 9.46 | 10.2
AUUCACCGAGAUCAUCGGGUG [Fam2.2 aminoacylation ribozyme variant] | 3.88 | 4.27 | 8.53 | 49.8 | 7.09 | 6.77
AUUCACCGAGGGCAUCGGGUG [Fam2.2 aminoacylation ribozyme variant] | 4.62 | 5.15 | 8.06 | 30.9 | 7.83 | 5.18
AUUCACCGAUGUCAUCGGGUG [Fam2.2 aminoacylation ribozyme variant] | 5.59 | 4.63 | 10.8 | 62.7 | 7.35 | 8.67
AUUCACCGGGGUCAUCGGGUG [Fam2.2 aminoacylation ribozyme variant] | 6.47 | 7.4 | 10.7 | 80.5 | 9.14 | 8.15
AUUCACCGUGGUCAUCGGGUG [Fam2.2 aminoacylation ribozyme variant] | 5.23 | 6.1 | 9.19 | 59.5 | 8.84 | 9.04
AUUCACCUAAGUCAUCGGUUG [Fam2.2 aminoacylation ribozyme variant] | 1.06 | 1.24 | 1.23 | 0.716 | 0.969 | 1.14
AUUCACCUAAGUCGUCGGGUG [Fam2.2 aminoacylation ribozyme variant] | 1.88 | 1.87 | 2.55 | 10.1 | 2.02 | 2.18
AUUCACCUACCUCAUCGGGUG [Fam2.2 aminoacylation ribozyme variant] | 2.21 | 2.33 | 4.3 | 22.3 | 2.79 | 2.69
AUUCACCUACGACAUCGGGUG [Fam2.2 aminoacylation ribozyme variant] | 2.48 | 2.28 | 5.12 | 24 | 3.95 | 3.87
AUUCACCUACGGCAUCGGGUG [Fam2.2 aminoacylation ribozyme variant] | 2.29 | 2.7 | 3.86 | 22.2 | 3.22 | 2.91
AUUCACCUACGUCAGCGGGUG [Fam2.2 aminoacylation ribozyme variant] | 2.95 | 2.71 | 6.17 | 31.4 | 4.14 | 4.72
AUUCACCUACGUCAUCCGGUG [Fam2.2 aminoacylation ribozyme variant] | 4.29 | 3.84 | 8.48 | 46.7 | 7.01 | 5.94
AUUCACCUACGUCAUUGGGUG [Fam2.2 aminoacylation ribozyme variant] | 1.5 | 1.51 | 2.47 | 10.9 | 1.51 | 1.97
AUUCACCUAGAGCAUCGGGUG [Fam2.2 aminoacylation ribozyme variant] | 1.76 | 2.06 | 2.43 | 12.4 | 1.64 | 2.34
AUUCACCUAGAUCAACGGGUG [Fam2.2 aminoacylation ribozyme variant] | 2.73 | 2.49 | 5.41 | 25.3 | 4.38 | 4.52
AUUCACCUAGAUCAUCCGGUG [Fam2.2 aminoacylation ribozyme variant] | 3.4 | 3.32 | 3.97 | 17.8 | 2.83 | 3.41
AUUCACCUAGCACAUCGGGUG [Fam2.2 aminoacylation ribozyme variant] | 2.09 | 2.12 | 3.31 | 11.3 | 2.03 | 2.38
